Our source for the Kd values is article PMC5071372, “Combining biophysical methods to analyze the disulfide bond in SH2 domain of C-terminal Src kinase” (Biophysics Reports, 2016).

In assay [1] the target is T1, Csk L-SH2 domain (A73–A178), reduced form (human, UniProt P41240 73-178).
T1 construct: C-terminal Src kinase (Csk), human, SH2 domain with part of the SH3-SH2 linker, residues A73-A178; C122 and C164 as free thiols; Cloned into pTWIN1 as described in Liu et al. 2009; 15N/13C-labelled for the NMR experiments; PDB 3EAC is the oxidized form of the same construct; also called reduced SH2; reduced L-SH2; source: E. coli BL21 (DE3) RIL, purified (chitin beads, intein cleaved with 50 …)
T1 sequence (looked up): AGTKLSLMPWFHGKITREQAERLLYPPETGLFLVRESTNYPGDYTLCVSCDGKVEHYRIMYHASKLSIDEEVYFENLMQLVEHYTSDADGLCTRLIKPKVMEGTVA
Put plainly: other fluorescence titration; intrinsic tryptophan fluorescence of L-SH2 (typically 5 μmol/L) titrated with Cbp peptide; 25 °C, 3 mL of 50 mmol/L Tris-HCl pH 7.5; excitation 288 nm, emission 320 nm. The settings on record: both partners purified.

For assay [2], the target named is T2, Csk L-SH2 domain (A73–A178), oxidized form (human, UniProt P41240 73-178, disulfide bond C122–C164).
T2 construct: C-terminal Src kinase (Csk), human, SH2 domain with part of the SH3-SH2 linker, residues A73-A178; intramolecular disulfide bond between C122 and C164; Same polypeptide as m1, differing only in the C122–C164 disulfide bond; also called oxidized SH2; oxidized L-SH2; source: E. coli BL21 (DE3) RIL, purified (chitin beads, intein cleaved with DTT, Mono Q); oxidized by exposure to air for about a …
T2 sequence (looked up): T1 sequence (looked up)
The assay is described as above. The settings on record: both partners purified.

Square brackets hold non-standard residues; d marks the D form. Ends that are not written are not given here. pY = N[C@@H](Cc1ccc(OP(=O)(O)O)cc1)C(=O)O

B1: Cbp phosphopeptide ISAMpYSSVNK (peptide)
peptide: ISAM[pY]SSVNK
notes: also called Cbp peptide; Cbp-phosphorylated peptide; source: synthetic peptide (GenScript, solid-phase synthesis)
Take B1: the Kd in assay [1] was found to be 520 ± 50 nM; in assay [2], 990 ± 80 nM.

The term Kd denotes the constant that tells how readily two partners part at equilibrium. Lower therefore signals tighter binding.
